The source of these data is PMC9282251.

In experiment [1] the target is T1, GFP-tagged Kif4A (human), O95239.
T1 chain: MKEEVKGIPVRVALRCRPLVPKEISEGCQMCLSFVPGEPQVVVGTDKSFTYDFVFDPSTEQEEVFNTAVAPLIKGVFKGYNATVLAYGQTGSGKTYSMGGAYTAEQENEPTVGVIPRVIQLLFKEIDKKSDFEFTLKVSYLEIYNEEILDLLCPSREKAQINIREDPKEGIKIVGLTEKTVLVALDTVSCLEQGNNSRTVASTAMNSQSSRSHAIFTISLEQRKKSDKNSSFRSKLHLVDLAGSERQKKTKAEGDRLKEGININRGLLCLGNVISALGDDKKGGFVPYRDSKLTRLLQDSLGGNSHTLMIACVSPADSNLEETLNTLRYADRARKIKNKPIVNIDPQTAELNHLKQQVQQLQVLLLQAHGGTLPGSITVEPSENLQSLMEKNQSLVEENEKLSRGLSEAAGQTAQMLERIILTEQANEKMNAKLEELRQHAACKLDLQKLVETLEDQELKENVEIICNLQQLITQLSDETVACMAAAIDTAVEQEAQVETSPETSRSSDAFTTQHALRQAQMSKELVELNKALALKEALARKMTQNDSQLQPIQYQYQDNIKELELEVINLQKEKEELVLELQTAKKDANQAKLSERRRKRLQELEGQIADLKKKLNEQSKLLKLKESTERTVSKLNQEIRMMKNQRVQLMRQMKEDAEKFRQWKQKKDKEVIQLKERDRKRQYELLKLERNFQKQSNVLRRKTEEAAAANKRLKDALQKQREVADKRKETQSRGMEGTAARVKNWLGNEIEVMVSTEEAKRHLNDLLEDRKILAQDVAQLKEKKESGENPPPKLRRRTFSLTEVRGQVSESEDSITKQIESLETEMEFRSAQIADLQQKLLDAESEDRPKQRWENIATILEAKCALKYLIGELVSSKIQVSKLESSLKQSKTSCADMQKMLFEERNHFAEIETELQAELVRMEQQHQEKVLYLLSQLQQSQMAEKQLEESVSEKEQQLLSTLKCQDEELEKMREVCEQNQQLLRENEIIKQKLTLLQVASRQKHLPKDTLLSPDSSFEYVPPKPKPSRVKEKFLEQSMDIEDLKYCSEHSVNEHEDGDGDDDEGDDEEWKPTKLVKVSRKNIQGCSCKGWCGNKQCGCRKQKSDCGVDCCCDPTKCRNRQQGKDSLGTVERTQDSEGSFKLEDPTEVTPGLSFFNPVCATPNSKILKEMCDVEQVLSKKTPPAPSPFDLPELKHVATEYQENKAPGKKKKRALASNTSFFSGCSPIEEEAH
As to the kind of experiment: single-molecule photobleaching and fluorescence intensity analysis. The conditions noted are these: remark: other sources report otherwise.

Experiment [2] has as its target T2, Kif4A-mCherry (human), O95239.
T2 chain: T1 chain
The description is as above. To be noted: remark: other sources report otherwise.

Usually stoichiometry N stands for a count of units in the complex or per binding partner.

B1: GFP-tagged Kif4A, O95239 1-1232 (natural protein)
chain: T1 chain
Take B1: in experiment [1], the stoichiometry N is 2.

B2: Kif4A-mCherry, O95239 1-1232 (natural protein)
chain: T1 chain
In turn, B2 gave a stoichiometry N in experiment [2] of 2.
